The values below come from US20100098683A1 (Dana-Farber, published 2010).

For the test, the target named is T1, GST-galectin-3 (human, UniProt P08515 1-218 = GST).
T1 construct: Full-length galectin-3 in pGEX4T1; also called GST-galectin-3 fusion protein; GST fusion with full-length galectin-3
The test can be described thus: GST-galectin-3 pull-down from BT549 lysates, anti-MUC1-C immunoblot. The protocol: Immunoblotting and precipitates. Lysates were prepared from subconfluent cells as described (Li et al., 2001).
For orientation: Immunoblotting shows a protein as a band on a membrane.

T1 sequence (P08515 1-218, tags or fused parts left off): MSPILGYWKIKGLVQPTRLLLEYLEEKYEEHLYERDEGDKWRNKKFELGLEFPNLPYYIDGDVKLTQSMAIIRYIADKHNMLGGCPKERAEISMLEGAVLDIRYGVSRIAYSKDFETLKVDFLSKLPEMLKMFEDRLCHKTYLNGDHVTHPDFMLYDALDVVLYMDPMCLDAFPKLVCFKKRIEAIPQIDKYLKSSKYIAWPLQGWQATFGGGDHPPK

B1: MUC1-C(N36A) (receptor)
chain: SVVVQLTLAFREGTINVHDVETQFNQYKTEAASRYALTISDVSVSDVPFPFSAQSGAGVPGWGIALLVLVCVLVALAIVYLIALAVCQCRRKNYGQLDIFPARDTYHPMSEYPTYHTHGRYVPPSSTDRSPYEKVSAGNGGSSLSYTNPAVAATSANL
notes: Stably expressed in BT549 cells and tested in lysates; lacks the glycosylated 25-20 kDa species; also called MUC1-C with a N36A mutation
On to B1, for which the binding result is “no binding”.
